Reference: patent publication US20240102068A1, “C-GLYCOSYLTRANSFERASE VARIANTS AND USE THEREOF” (KOREA ADVANCED INSTITUTE OF SCIENCE AND TECHNOLOGY, priority 2021, published 2024)

Experiments:
[1] = molecular target: T1, Gentiana triflora GtCGT (GtUF6CGT1) variant V93Q/Y193F, SEQ ID NO: 61 (Gentiana triflora, UniProt A0A0B6VIJ5, V93Q/Y193F); assay: enzyme kinetics of purified N-terminal 6xHis GtCGT V93Q/Y193F, FK to dcII, UDP-Glo Glycosyltransferase Assay; format: biochemical
T1 sequence (A0A0B6VIJ5 1-477 V93Q/Y193F): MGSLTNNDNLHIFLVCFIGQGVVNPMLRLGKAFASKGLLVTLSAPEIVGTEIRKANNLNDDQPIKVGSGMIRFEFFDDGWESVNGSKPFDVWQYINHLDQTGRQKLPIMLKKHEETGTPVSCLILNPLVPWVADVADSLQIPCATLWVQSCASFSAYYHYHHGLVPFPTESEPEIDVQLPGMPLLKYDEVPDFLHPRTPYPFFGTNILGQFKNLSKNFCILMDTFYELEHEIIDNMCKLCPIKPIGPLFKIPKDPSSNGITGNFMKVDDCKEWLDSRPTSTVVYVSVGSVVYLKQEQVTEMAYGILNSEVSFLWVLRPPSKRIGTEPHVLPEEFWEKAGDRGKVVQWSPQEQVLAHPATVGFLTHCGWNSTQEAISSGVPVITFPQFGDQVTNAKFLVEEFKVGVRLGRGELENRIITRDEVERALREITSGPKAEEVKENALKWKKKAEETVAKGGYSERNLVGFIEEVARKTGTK
Experimental: Each plasmid was constructed by PCR amplification of pCDF-GtCGT and pCDF-GtCGTmut using GtCGT_N_His_IV_F and GtCGT_N_His_IV_R primers, followed by blunt-end ligation through DpnI treatment and T4 PNK and T4 ligase treatment. Each of the two plasmids thus constructed was transformed into the E. coli BL21(DE3) strain, followed by seed culture in a test tube containing 10 mL of LB and then culture at 37° C. until OD600 reached 0.8 in a flask containing 500 mL of LB. After treatment with 1 mM IPTG for enzyme expression, additional culture was carried out at 20° C. for 16 hours, and cells were collected by centrifugation and then resuspended in 30 mL of lysis buffer (50 mM NaH2PO4, 0.3 M NaCl, 10 mM imidazole, pH 7.5). The cells were disrupted by ultrasonication and then centrifuged at 10,000 rpm and 4° C. for 40 minutes to obtain a supernatant containing water-soluble proteins. […]
Here, a UDP-Glo Glycosyltransferase Assay Kit (Promega) was used to determine the extent of reaction. Since this kit enables measurement of free UDP generated as a reaction byproduct by luminescence, 200 μL of an enzyme reaction solution containing 0.1 μM enzyme and various concentrations of FK (50 mM HEPES, 0.1 mM UDP-glucose, 5 mM MgCl2, pH 7.5) was allowed to react at 25° C. for 1 hour, 25 μL thereof was taken out, and the amount of emitted light was measured using the kit.

[2] = substrate: Cc1c(C(=O)O)c(O)cc2c1C(=O)c1c(O)cc(O)cc1C2=O; assay: enzyme kinetics of DnrF; format: biochemical, Streptomyces peucetius; conditions: other: means ± SD, n = 3
[3] = substrate: Cc1c(C(=O)O)c(O)cc2c1C(=O)c1c(O)cc(O)cc1C2=O; assay: enzyme kinetics of DnrF P217K; format: biochemical, Streptomyces peucetius; conditions: other: means ± SD, n = 3

Q: `Cc1c(C(=O)O)c(O)cc2c1C(=O)c1c(O)cc(O)cc1C2=O` [FK, flavokermesic acid] was tested. Which “KM value decreased compared to GtCGT” value ([1]; decrease vs wild-type GtCGT) did it give?
A: 19.5%

Q: What about the “Vmax value increased compared to GtCGT” value ([1]; increase vs wild-type GtCGT) of the same molecule?
A: 18.2%

B1: Streptomyces peucetius DnrF (aklavinone 12-hydroxylase), wild type, SEQ ID NO: 2 (Streptomyces peucetius) (protein)
chain: MALTKPDVDVLVVGGGLGGLSTALFLARRGARVLLVERHASTSVLPKAAGQNPRTMELFRFGGVADEILATDDIRGAQGDFTIKVVERVGGRVLHSFAESFEELVGATEQCTPMPWALAPQDRVEPVLVAHAAKHGAEIRFATELTSFQAGDDGVTARLRDLGTGAESTVSARYLVAADGPRSAIRESLGITRHGHGTLAHFMGVIFEADLTAVVPPGSTGWYYLQHPDFTGTFGPTDRPNRHTFYVRYDPERGERPEDYTPQRCTELIRLAVDAPGLVPDILDIQAWDMAAYIADRWREGPVLLVGDAAKVTPPTGGMGGNTAIGDGFDVAWKLAAVLRGEAGERLLDSYGAERSLVSRLVVDESLAIYAQRMAPHLLGSVPEERGTAQVVLGFRYRSTAVAAEDDDPEPTEDPRRPSGRPGFRAPHVWIEQDGTRRSTVELFGDCWVLLAAPEGGAWGQAAARAAADLGVRLDVHLVGRDVAAPSGELTRTYGIGRAGASLVRPDGVVAWRTAVAPGAEAQDQLSTLLTRLLAR
notes: purification details not in the excerpts
Q: How did the Km [2] turn out when B1 was run?
A: 56.75 ± 4.68 µM

Q: And the Vmax [2]?
A: 0.99 µM/min

Q: What about the Vmax/Km [2] of the same molecule?
A: 0.0175 min⁻¹

B2: Streptomyces peucetius DnrF (aklavinone 12-hydroxylase, SEQ ID NO: 2) variant P217K (Streptomyces peucetius; P217K) (protein)
chain: VALTKPDVDVLVVGGGLGGLSTALFLARRGARVLLVERHASTSVLPKAAGQNPRTMELFRFGGVADEILATDDIRGAQGDFTIKVVERVGGRVLHSFAESFEELVGATEQCTPMPWALAPQDRVEPVLVAHAAKHGAEIRFATELTSFQAGDDGVTARLRDLGTGAESTVSARYLVAADGPRSAIRESLGITRHGHGTLAHFMGVIFEADLTAVVPKGSTGWYYLQHPDFTGTFGPTDRPNRHTFYVRYDPERGERPEDYTPQRCTELIRLAVDAPGLVPDILDIQAWDMAAYIADRWREGPVLLVGDAAKVTPPTGGMGGNTAIGDGFDVAWKLAAVLRGEAGERLLDSYGAERSLVSRLVVDESLAIYAQRMAPHLLGSVPEERGTAQVVLGFRYRSTAVAAEDDDPEPTEDPRRPSGRPGFRAPHVWIEQDGTRRSTVELFGDCWVLLAAPEGGAWGQAAARAAADLGVRLDVHLVGRDVAAPSGELTRTYGIGRAGASLVRPDGVVAWRTAVAPGAEAQDQLSTLLTRLLAR
notes: as for B1
Q: What does the source list for B2?
A: Km [3]: 43.31 ± 2.64 µM; Vmax [3]: 1.01 µM/min; Vmax/Km [3]: 0.0234 min⁻¹
